Measurements taken from patent publication US20140087995A1 (published 2014).
Numbered stars: 1 amine (or outer) side, 2 acyl side, 3 side chain; on linkers, the order of the positions; unused ones are H or OH. Bridge positions count the residues as written; N and C are the ends. Side chains are listed from the residue outwards. Ends that are not written are not given here. * marks the point of attachment. C20 diacid = O=C(O)CCCCCCCCCCCCCCCCCCC(=O)*; γGlu = O=C(O)[C@H](CCC(=O)[*:2])N[*:1]

T1: human amylin receptor (amylin 3(a) receptor: human calcitonin receptor co-expressed with RAMP-3) (human, UniProt P30988 25-474; O60896 24-148, limits assumed)
T1 construct: whole, on cells; Used as cell membranes prepared from the Amylin 3(a)/CRE-luc BHK cells (Assay V); also called hAmylin-R; hAmylinR
T1 sequence (looked up) 1: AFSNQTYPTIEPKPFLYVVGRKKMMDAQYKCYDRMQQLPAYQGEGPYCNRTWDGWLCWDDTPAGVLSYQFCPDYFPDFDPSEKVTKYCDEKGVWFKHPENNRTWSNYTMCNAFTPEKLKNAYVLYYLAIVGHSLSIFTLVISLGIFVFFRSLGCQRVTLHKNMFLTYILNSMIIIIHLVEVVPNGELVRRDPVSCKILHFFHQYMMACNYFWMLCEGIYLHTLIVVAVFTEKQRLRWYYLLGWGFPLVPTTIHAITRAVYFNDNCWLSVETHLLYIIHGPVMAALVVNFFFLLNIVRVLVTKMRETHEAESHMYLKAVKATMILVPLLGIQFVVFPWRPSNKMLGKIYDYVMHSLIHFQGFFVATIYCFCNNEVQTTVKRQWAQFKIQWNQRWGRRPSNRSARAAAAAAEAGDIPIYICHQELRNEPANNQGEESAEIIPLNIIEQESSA
T1 sequence (looked up) 2: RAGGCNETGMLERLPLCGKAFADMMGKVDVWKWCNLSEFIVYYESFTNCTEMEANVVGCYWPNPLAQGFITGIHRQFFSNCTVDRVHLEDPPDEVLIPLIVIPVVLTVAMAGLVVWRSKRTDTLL

B1: N^-1-[(4S)-4-carboxy-4-(19-carboxynonadecanoylamino)butanoyl]-Gly[Arg1,Ala14,Arg17,Pro21,Pro27,His34]-h-amylin (peptide)
peptide: {C20 diacid-γGlu}-GRCNTATCATQRLAAFLRHSSPNFGAIPSSTNVGHNTY-NH2
modifications: disulfide 3-8
SMILES: CC[C@H](C)[C@H](NC(=O)[C@H](C)NC(=O)CNC(=O)[C@H](Cc1ccccc1)NC(=O)[C@H](CC(N)=O)NC(=O)[C@@H]1CCCN1C(=O)[C@H](CO)NC(=O)[C@H](CO)NC(=O)[C@H](Cc1c[nH]cn1)NC(=O)[C@H](CCCNC(=N)N)NC(=O)[C@H](CC(C)C)NC(=O)[C@H](Cc1ccccc1)NC(=O)[C@H](C)NC(=O)[C@H](C)NC(=O)[C@H](CC(C)C)NC(=O)[C@H](CCCNC(=N)N)NC(=O)[C@H](CCC(N)=O)NC(=O)[C@@H](NC(=O)[C@H](C)NC(=O)[C@@H]1CSSC[C@H](NC(=O)[C@H](CCCNC(=N)N)NC(=O)CNC(=O)CC[C@H](NC(=O)CCCCCCCCCCCCCCCCCCC(=O)O)C(=O)O)C(=O)N[C@@H](CC(N)=O)C(=O)N[C@@H]([C@@H](C)O)C(=O)N[C@@H](C)C(=O)N[C@@H]([C@@H](C)O)C(=O)N1)[C@@H](C)O)C(=O)N1CCC[C@H]1C(=O)N[C@@H](CO)C(=O)N[C@@H](CO)C(=O)N[C@H](C(=O)N[C@@H](CC(N)=O)C(=O)N[C@H](C(=O)NCC(=O)N[C@@H](Cc1c[nH]cn1)C(=O)N[C@@H](CC(N)=O)C(=O)N[C@H](C(=O)N[C@@H](Cc1ccc(O)cc1)C(N)=O)[C@@H](C)O)C(C)C)[C@@H](C)O
B2: N^-1-[(4S)-4-carboxy-4-(19-carboxynonadecanoylamino)butanoyl]-Gly[Arg1,His14,Arg17,Pro21,Pro27,Pro34]-h-amylin (peptide)
peptide: {C20 diacid-γGlu}-GRCNTATCATQRLAHFLRHSSPNFGAIPSSTNVGPNTY-NH2
modifications: disulfide 3-8
SMILES: CC[C@H](C)[C@H](NC(=O)[C@H](C)NC(=O)CNC(=O)[C@H](Cc1ccccc1)NC(=O)[C@H](CC(N)=O)NC(=O)[C@@H]1CCCN1C(=O)[C@H](CO)NC(=O)[C@H](CO)NC(=O)[C@H](Cc1c[nH]cn1)NC(=O)[C@H](CCCNC(=N)N)NC(=O)[C@H](CC(C)C)NC(=O)[C@H](Cc1ccccc1)NC(=O)[C@H](Cc1c[nH]cn1)NC(=O)[C@H](C)NC(=O)[C@H](CC(C)C)NC(=O)[C@H](CCCNC(=N)N)NC(=O)[C@H](CCC(N)=O)NC(=O)[C@@H](NC(=O)[C@H](C)NC(=O)[C@@H]1CSSC[C@H](NC(=O)[C@H](CCCNC(=N)N)NC(=O)CNC(=O)CC[C@H](NC(=O)CCCCCCCCCCCCCCCCCCC(=O)O)C(=O)O)C(=O)N[C@@H](CC(N)=O)C(=O)N[C@@H]([C@@H](C)O)C(=O)N[C@@H](C)C(=O)N[C@@H]([C@@H](C)O)C(=O)N1)[C@@H](C)O)C(=O)N1CCC[C@H]1C(=O)N[C@@H](CO)C(=O)N[C@@H](CO)C(=O)N[C@H](C(=O)N[C@@H](CC(N)=O)C(=O)N[C@H](C(=O)NCC(=O)N1CCC[C@H]1C(=O)N[C@@H](CC(N)=O)C(=O)N[C@H](C(=O)N[C@@H](Cc1ccc(O)cc1)C(N)=O)[C@@H](C)O)C(C)C)[C@@H](C)O
B3: N^ε1-[(4S)-4-carboxy-4-[[(4S)-4-carboxy-4-(19-carboxynonadecanoylamino)butanoyl]amino]butanoyl]-[Glu14,Arg17,Pro21,Pro27,Pro34,Glu35,Pro37]-h-amylin (peptide)
peptide: K([γGlu-γGlu-C20 diacid])CNTATCATQRLAEFLRHSSPNFGAIPSSTNVGPETP-NH2
modifications: disulfide 2-7; N-terminus assumed
SMILES: CC[C@H](C)[C@H](NC(=O)[C@H](C)NC(=O)CNC(=O)[C@H](Cc1ccccc1)NC(=O)[C@H](CC(N)=O)NC(=O)[C@@H]1CCCN1C(=O)[C@H](CO)NC(=O)[C@H](CO)NC(=O)[C@H](Cc1c[nH]cn1)NC(=O)[C@H](CCCNC(=N)N)NC(=O)[C@H](CC(C)C)NC(=O)[C@H](Cc1ccccc1)NC(=O)[C@H](CCC(=O)O)NC(=O)[C@H](C)NC(=O)[C@H](CC(C)C)NC(=O)[C@H](CCCNC(=N)N)NC(=O)[C@H](CCC(N)=O)NC(=O)[C@@H](NC(=O)[C@H](C)NC(=O)[C@@H]1CSSC[C@H](NC(=O)[C@@H](N)CCCCNC(=O)CC[C@H](NC(=O)CC[C@H](NC(=O)CCCCCCCCCCCCCCCCCCC(=O)O)C(=O)O)C(=O)O)C(=O)N[C@@H](CC(N)=O)C(=O)N[C@@H]([C@@H](C)O)C(=O)N[C@@H](C)C(=O)N[C@@H]([C@@H](C)O)C(=O)N1)[C@@H](C)O)C(=O)N1CCC[C@H]1C(=O)N[C@@H](CO)C(=O)N[C@@H](CO)C(=O)N[C@H](C(=O)N[C@@H](CC(N)=O)C(=O)N[C@H](C(=O)NCC(=O)N1CCC[C@H]1C(=O)N[C@@H](CCC(=O)O)C(=O)N[C@H](C(=O)N1CCC[C@H]1C(N)=O)[C@@H](C)O)C(C)C)[C@@H](C)O
B4: N^ε1-[(4S)-4-carboxy-4-[[(4S)-4-carboxy-4-(19-carboxynonadecanoylamino)butanoyl]amino]butanoyl]-[Glu14,Arg17,Pro21,Pro27,Pro34,Phe37]-h-amylin (peptide)
peptide: K([γGlu-γGlu-C20 diacid])CNTATCATQRLAEFLRHSSPNFGAIPSSTNVGPNTF-NH2
modifications: disulfide 2-7; N-terminus assumed
SMILES: CC[C@H](C)[C@H](NC(=O)[C@H](C)NC(=O)CNC(=O)[C@H](Cc1ccccc1)NC(=O)[C@H](CC(N)=O)NC(=O)[C@@H]1CCCN1C(=O)[C@H](CO)NC(=O)[C@H](CO)NC(=O)[C@H](Cc1c[nH]cn1)NC(=O)[C@H](CCCNC(=N)N)NC(=O)[C@H](CC(C)C)NC(=O)[C@H](Cc1ccccc1)NC(=O)[C@H](CCC(=O)O)NC(=O)[C@H](C)NC(=O)[C@H](CC(C)C)NC(=O)[C@H](CCCNC(=N)N)NC(=O)[C@H](CCC(N)=O)NC(=O)[C@@H](NC(=O)[C@H](C)NC(=O)[C@@H]1CSSC[C@H](NC(=O)[C@@H](N)CCCCNC(=O)CC[C@H](NC(=O)CC[C@H](NC(=O)CCCCCCCCCCCCCCCCCCC(=O)O)C(=O)O)C(=O)O)C(=O)N[C@@H](CC(N)=O)C(=O)N[C@@H]([C@@H](C)O)C(=O)N[C@@H](C)C(=O)N[C@@H]([C@@H](C)O)C(=O)N1)[C@@H](C)O)C(=O)N1CCC[C@H]1C(=O)N[C@@H](CO)C(=O)N[C@@H](CO)C(=O)N[C@H](C(=O)N[C@@H](CC(N)=O)C(=O)N[C@H](C(=O)NCC(=O)N1CCC[C@H]1C(=O)N[C@@H](CC(N)=O)C(=O)N[C@H](C(=O)N[C@@H](Cc1ccccc1)C(N)=O)[C@@H](C)O)C(C)C)[C@@H](C)O

molecular target: T1, human amylin receptor (amylin 3(a) …); assay: SPA displacement of 125I-rat amylin, hAmylin 3(a) receptor membranes
Summary of the method: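 SPA beads with BHK Amylin 3(a)/CRE-luc cell membranes (35 ng/μL final) in 50 mM Hepes pH 7.4, 1 mM CaCl2, 5 mM MgCl₂, 0.1% OA, 0.02% Tween20.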

Binder | IC50 [nM]
B1 | 0.426
B2 | 0.217
{C20 diacid-γGlu}-GRCNTATCATQRLAAFLRHSSPNFGAIPSSTNVGPNTY-NH2 (disulfide 3-8) | 0.114
B3 | 0.533
K([γGlu-γGlu-C20 diacid])CNTATCATQRLAEFLRHSSPNFGAIPSSTNVGPHTY-NH2 (disulfide 2-7 (inferred)) | 0.377
B4 | 0.152
